Measured values taken from ChEMBL document CHEMBL3593243, “Discovery of novel, potent, selective and cellular active ADC type PTP1B inhibitors via fragment-docking-oriented de novel design” (Bioorg Med Chem, 2015).

What was measured:
[1] = substrate: CCOc1cc(NS(C)(=O)=O)c(OCC)cc1CNC(=O)Nc1ccc(OC)cc1; details: Homo sapiens; 0.4 uM
Description: Inhibition of recombinant PTP1B (unknown origin) using pNPP as substrate assessed as enzyme Vmax at 0.4 uM after 30 mins by Michaelis-Menten plot analysis

[2] = substrate: CCOc1cc(NS(C)(=O)=O)c(OCC)cc1CNC(=O)Nc1ccc(OC)cc1; details: Homo sapiens; 0.2 uM
Description: Inhibition of recombinant PTP1B (unknown origin) using pNPP as substrate assessed as enzyme Vmax at 0.2 uM after 30 mins by Michaelis-Menten plot analysis

[3] = substrate: CCOc1cc(NS(C)(=O)=O)c(OCC)cc1CNC(=O)Nc1ccc(OC)cc1; details: Homo sapiens; 0.1 uM
Description: Inhibition of recombinant PTP1B (unknown origin) using pNPP as substrate assessed as enzyme Km at 0.1 uM after 30 mins by Michaelis-Menten plot analysis

[4] = substrate: CCOc1cc(NS(C)(=O)=O)c(OCC)cc1CNC(=O)Nc1ccc(OC)cc1; details: Homo sapiens; 0.1 uM; remark: listed apart in the source
Description: Inhibition of recombinant PTP1B (unknown origin) using pNPP as substrate assessed as enzyme Vmax at 0.1 uM after 30 mins by Michaelis-Menten plot analysis

[5] = substrate: CCOc1cc(NS(C)(=O)=O)c(OCC)cc1CNC(=O)Nc1ccc(OC)cc1; details: Homo sapiens; 0.8 uM
Description: Inhibition of recombinant PTP1B (unknown origin) using pNPP as substrate assessed as enzyme Vmax at 0.8 uM after 30 mins by Michaelis-Menten plot analysis

[6] = substrate: CCOc1cc(NS(C)(=O)=O)c(OCC)cc1CNC(=O)Nc1ccc(OC)cc1; details: Homo sapiens; 0.8 uM; remark: listed apart in the source
Description: Inhibition of recombinant PTP1B (unknown origin) using pNPP as substrate assessed as enzyme Km at 0.8 uM after 30 mins by Michaelis-Menten plot analysis

[7] = substrate: CCOc1cc(NS(C)(=O)=O)c(OCC)cc1CNC(=O)Nc1ccc(OC)cc1; details: Homo sapiens; 0.4 uM; remark: listed apart in the source
Description: Inhibition of recombinant PTP1B (unknown origin) using pNPP as substrate assessed as enzyme Km at 0.4 uM after 30 mins by Michaelis-Menten plot analysis

[8] = substrate: CCOc1cc(NS(C)(=O)=O)c(OCC)cc1CNC(=O)Nc1ccc(OC)cc1; details: Homo sapiens; 0.2 uM; remark: listed apart in the source
Description: Inhibition of recombinant PTP1B (unknown origin) using pNPP as substrate assessed as enzyme Km at 0.2 uM after 30 mins by Michaelis-Menten plot analysis

B1: Tyrosine-protein phosphatase non-receptor type 1 (Homo sapiens), P18031 (protein)
chain: MEMEKEFEQIDKSGSWAAIYQDIRHEASDFPCRVAKLPKNKNRNRYRDVSPFDHSRIKLHQEDNDYINASLIKMEEAQRSYILTQGPLPNTCGHFWEMVWEQKSRGVVMLNRVMEKGSLKCAQYWPQKEEKEMIFEDTNLKLTLISEDIKSYYTVRQLELENLTTQETREILHFHYTTWPDFGVPESPASFLNFLFKVRESGSLSPEHGPVVVHCSAGIGRSGTFCLADTCLLLMDKRKDPSSVDIKKVLLEMRKFRMGLIQTADQLRFSYLAVIEGAKFIMGDSSVQDQWKELSHEDLEPPPEHIPPPPRPPKRILEPHNGKCREFFPNHQWVKEETQEDKDCPIKEEKGSPLNAAPYGIESMSQDTEVRSRVVGGSLRGAQAASPAKGEPSLPEKDEDHALSYWKPFLVNMCVATVLTAGAYLCYRFLFNSNT
In the case of B1, the Vmax (milli optical density/minute) [1] is reported as 48.9, the Vmax (milli optical density/minute) [2] is reported as 54.8 and the Km [3] is reported as 2.96 mM. It also gave a Vmax (milli optical density/minute) [4] of 58.3, a Vmax (milli optical density/minute) [5] of 52.5 and a Km [6] of 7.32 mM. It also gave a Km [7] of 4.52 mM and a Km [8] of 3.89 mM.
